Results published in publication PMC5771124, “Characterization of a functional insertion sequence ISSau2 from Staphylococcus aureus”.

Molecular target: ISSau2 transposase OrfAB (Staphylococcus aureus E48 (ISSau2 in …, UniProt UPI0010FBCD58 1-522, F226L))
Assay: EMSA; Mg2+, excess poly(dI-dC), 0.42 ug OrfAB
Settings: protein: recombinant; tags: N-terminal 6-His (pET32a vector fusion); label: biotin end label

B1: IRL42 (dsDNA)
DNA 1: TGAAATGCTCCCTTCAAAGTAGACATTGAAAAAATGAAAACT
DNA 2: AGTTTTCATTTTTTCAATGTCTACTTTGAAGGGAGCATTTCA
  binding result: binds
